Laboratory results: the MegaScale stability set (Tsuboyama et al. 2023)

B1: HEEH_KT_rd6_3632 (parent)
chain: DAEELIELVERALKEGREIILLGVRITSEEAGKWFIEWIRRFL

Variants of: B1
Experiment: folding stability dG (cDNA display proteolysis); higher = more stable
Conditions: PBS, room temperature

Compared with DAEELIEYVERALKEGREIILLGVRITSEEAGKWFIEWIRRFL [L8Y], DAEELIELVERALKKGREIILLGVRITSEEAGKWFIEWIRRFL [E15K] is lower in “folding stability dG” value: 3.49 kcal/mol for the first, 3.45 kcal/mol for the second.

Going from DAEELIELVLRALKEGREIILLGVRITSEEAGKWFIEWIRRFL [E10L] to DAEELIELVERALKEGREIILLGVRITSEEAGKWLIEWIRRFL [F35L], the “folding stability dG” value falls from 4.16 kcal/mol to 3.66 kcal/mol.

First: DAEELIELVERALKEGREIFLLGVRITSEEAGKWFIEWIRRFL [I20F]
Second: DAEELIELVERALKEGREIILLGVRITSEEAGQWFIEWIRRFL [K33Q]
The “folding stability dG” value of the first is lower: 3.32 kcal/mol for the first, 3.62 kcal/mol for the second.

First: DAEELIELVERALKEGREIILLGVRITSEEAGKWFIEWIKRFL [R40K]
Second: DAEELIELVERALKEMREIILLGVRITSEEAGKWFIEWIRRFL [G16M]
The “folding stability dG” value of the first is lower: 3.69 kcal/mol for the first, 4.09 kcal/mol for the second.

Compared with DAEELIELVERALKEGREIALLGVRITSEEAGKWFIEWIRRFL [I20A], DAEELIELFERALKEGREIILLGVRITSEEAGKWFIEWIRRFL [V9F] is higher in “folding stability dG” value: 2.94 kcal/mol for the first, 3.37 kcal/mol for the second.

Compared with DAEELIELVERARKEGREIILLGVRITSEEAGKWFIEWIRRFL [L13R], DAEELIELVERALKEGREIILLGVRITSEEAGKWFIFWIRRFL [E37F] is higher in “folding stability dG” value: 3.1 kcal/mol for the first, 3.7 kcal/mol for the second.

Going from DAEELIELWERALKEGREIILLGVRITSEEAGKWFIEWIRRFL [V9W] to DAEELIELVERALKEGREIILLGVRITSEEAGKIFIEWIRRFL [W34I], the “folding stability dG” value rises from 3.15 kcal/mol to 3.6 kcal/mol.

Going from DAEELIELVERALKEGREIILLGVRITSEEAGKWFIEYIRRFL [W38Y] to DAEELIEDVERALKEGREIILLGVRITSEEAGKWFIEWIRRFL [L8D], the “folding stability dG” value falls from 3.37 kcal/mol to 2.92 kcal/mol.

Compared with DAEELIELVERALEEGREIILLGVRITSEEAGKWFIEWIRRFL [K14E], DAEELIELVERALKEGREIILLGVRITSEEAGKWFIEWIRRFP [L43P] is lower in “folding stability dG” value: 3.54 kcal/mol for the first, 2.62 kcal/mol for the second.

Compared with DAGELIELVERALKEGREIILLGVRITSEEAGKWFIEWIRRFL [E3G], DAEELIELVERALKEGREIILFGVRITSEEAGKWFIEWIRRFL [L22F] is lower in “folding stability dG” value: 3.69 kcal/mol for the first, 3.63 kcal/mol for the second.

First: DGEELIELVERALKEGREIILLGVRITSEEAGKWFIEWIRRFL [A2G]
Second: DAEELIELVERALKEGREIILLGVRITSEEAGKWFIECIRRFL [W38C]
The “folding stability dG” value of the first is lower: 3.42 kcal/mol for the first, 3.94 kcal/mol for the second.

Compared with DAEELIELVERALKEGREIILLGVRITSEEAGKWFINWIRRFL [E37N], DAEELIELVERALKEGREIDLLGVRITSEEAGKWFIEWIRRFL [I20D] is lower in “folding stability dG” value: 3.62 kcal/mol for the first, 2.84 kcal/mol for the second.

Going from DAEELIELVERALKEGREIITLGVRITSEEAGKWFIEWIRRFL [L21T] to DAEEIIELVERALKEGREIILLGVRITSEEAGKWFIEWIRRFL [L5I], the “folding stability dG” value rises from 2.78 kcal/mol to 3.44 kcal/mol.

First: DAEELIELVERALKEGREIILLGVRITSEEAGKWFIVWIRRFL [E37V]
Second: DAEELIELVERALKEGREIILLGVRITSEEAGKWFIEWMRRFL [I39M]
The “folding stability dG” value of the first is higher: 3.79 kcal/mol for the first, 3.58 kcal/mol for the second.

Going from DAEELIELVERALKEGREIILLGVRITSEEAVKWFIEWIRRFL [G32V] to DAEELIELVERALKEGREIILLGVRITSEEAGKWFIEWIRRFM [L43M], the “folding stability dG” value falls from 3.86 kcal/mol to 3.81 kcal/mol.

First: DAEELIELVERALKEGREIIYLGVRITSEEAGKWFIEWIRRFL [L21Y]
Second: DAEELIELVERALKEGREIILLGVYITSEEAGKWFIEWIRRFL [R25Y]
The “folding stability dG” value of the first is lower: 3.28 kcal/mol for the first, 3.65 kcal/mol for the second.

First: DAEELIELVERALKEGREIILLGVRITSEEAGTWFIEWIRRFL [K33T]
Second: DAEEPIELVERALKEGREIILLGVRITSEEAGKWFIEWIRRFL [L5P]
The “folding stability dG” value of the first is higher: 3.56 kcal/mol for the first, 2.82 kcal/mol for the second.

First: DAEELIELVERALKEGRTIILLGVRITSEEAGKWFIEWIRRFL [E18T]
Second: DAEELIELVERALKEGREIILLGVRITYEEAGKWFIEWIRRFL [S28Y]
The “folding stability dG” value of the first is higher: 3.94 kcal/mol for the first, 3.47 kcal/mol for the second.

Compared with VAEELIELVERALKEGREIILLGVRITSEEAGKWFIEWIRRFL [D1V], DAEELIWLVERALKEGREIILLGVRITSEEAGKWFIEWIRRFL [E7W] is lower in “folding stability dG” value: 4.07 kcal/mol for the first, 3.83 kcal/mol for the second.

Compared with DAEELIELVERALKEGAEIILLGVRITSEEAGKWFIEWIRRFL [R17A], DAEELIELVERALKEGREIILLGVRITSEEAGKAFIEWIRRFL [W34A] is higher in “folding stability dG” value: 3.6 kcal/mol for the first, 4.01 kcal/mol for the second.

First: DAEELIELTERALKEGREIILLGVRITSEEAGKWFIEWIRRFL [V9T]
Second: DAEELIELVERALKEGREIILLGVRITSEEAGKWFIQWIRRFL [E37Q]
The “folding stability dG” value of the first is lower: 3.09 kcal/mol for the first, 3.67 kcal/mol for the second.

Going from DAPELIELVERALKEGREIILLGVRITSEEAGKWFIEWIRRFL [E3P] to DAEELIELVERALKEGRRIILLGVRITSEEAGKWFIEWIRRFL [E18R], the “folding stability dG” value rises from 3.46 kcal/mol to 3.79 kcal/mol.

First: DAEELIELVERALKEGREIILLGVRITSEEAGKWFIEWIRIFL [R41I]
Second: DAEELIELVERALKEGREIGLLGVRITSEEAGKWFIEWIRRFL [I20G]
The “folding stability dG” value of the first is higher: 3.74 kcal/mol for the first, 2.71 kcal/mol for the second.

Going from DAEELIELVERALKEGREIILLGVRITSEEAGKWFIEWIGRFL [R40G] to DAEELIELVERALKEGREIILLGARITSEEAGKWFIEWIRRFL [V24A], the “folding stability dG” value rises from 3.04 kcal/mol to 3.15 kcal/mol.

Going from DAEELIELVERALKEGRIIILLGVRITSEEAGKWFIEWIRRFL [E18I] to DAEELIELVERASKEGREIILLGVRITSEEAGKWFIEWIRRFL [L13S], the “folding stability dG” value falls from 4.02 kcal/mol to 3.08 kcal/mol.

First: DAEELIELVERALKEGREIILPGVRITSEEAGKWFIEWIRRFL [L22P]
Second: DAEELIELVERALKEGREIILLGVRITSEEAGKWFIEWIRFFL [R41F]
The “folding stability dG” value of the first is lower: 2.68 kcal/mol for the first, 3.95 kcal/mol for the second.

Compared with DAEELIELIERALKEGREIILLGVRITSEEAGKWFIEWIRRFL [V9I], DAEELIELKERALKEGREIILLGVRITSEEAGKWFIEWIRRFL [V9K] is lower in “folding stability dG” value: 3.79 kcal/mol for the first, 2.75 kcal/mol for the second.

First: DAEELIELVERTLKEGREIILLGVRITSEEAGKWFIEWIRRFL [A12T]
Second: DAEELIELVERALKEGREIIMLGVRITSEEAGKWFIEWIRRFL [L21M]
The “folding stability dG” value of the first is lower: 3.3 kcal/mol for the first, 3.36 kcal/mol for the second.

Compared with DAEELIELVERALKEGREIILLGVRITSEEAGKWFVEWIRRFL [I36V], DAEELIEPVERALKEGREIILLGVRITSEEAGKWFIEWIRRFL [L8P] is lower in “folding stability dG” value: 3.36 kcal/mol for the first, 2.77 kcal/mol for the second.

With DAEELIELVERALKEGREIILLGDRITSEEAGKWFIEWIRRFL [V24D] the “folding stability dG” value was 2.71 kcal/mol.
